Data on 3 molecules can be found in patent CN117242096A (APTEVO RES AND DEVELOPMENT LIMITED, dated 2023).

By Kd is commonly meant the constant that tells how readily two partners part at equilibrium. A higher Kd goes with a looser complex.

The target of experiment [1] is T1, 人PSMA ECD-AFH (可溶性人PSMA ECD，重组二聚体PSMA ECD) (human, UniProt Q04609 44-750).
T1 construct: Expressed in HEK-293, IMAC then SEC; the dimer fraction was used; also called TSC033; HuPSMA-AFH
As to the kind of experiment: SPR Biacore T200, scFv-Fc captured by anti-human IgG, dimeric PSMA ECD as analyte.

The target of experiment [2] is T2, 人CD3ε (TCR/CD3复合物，Jurkat细胞) (human, UniProt P07766 23-207).
T2 construct: whole, on cells; The other chains of the TCR/CD3 complex are present on the cells; also called CD3(+) Jurkat
The experiment is described as follows: flow cytometry on Jurkat cells, domain within anti-TA x anti-CD3ε constructs. (In general: In flow cytometry, cells or beads pass a laser one at a time.)

Experiment [3] addresses T1, 人PSMA ECD-AFH (可溶性人PSMA ECD，重组二聚体PSMA …). The experiment is described as follows: SPR Biacore, dimeric PSMA ECD. (In general: In SPR one partner is held on a chip, and binding of the other changes the refractive index at the surface.)
The next experiment deals with T3, 全长食蟹猴PSMA (cynomolgus monkey, UniProt Q04609 1-750 (human entry)).
T3 construct: On transfected CHO cells; also called TSC308; cynoPSMA
T3 chain: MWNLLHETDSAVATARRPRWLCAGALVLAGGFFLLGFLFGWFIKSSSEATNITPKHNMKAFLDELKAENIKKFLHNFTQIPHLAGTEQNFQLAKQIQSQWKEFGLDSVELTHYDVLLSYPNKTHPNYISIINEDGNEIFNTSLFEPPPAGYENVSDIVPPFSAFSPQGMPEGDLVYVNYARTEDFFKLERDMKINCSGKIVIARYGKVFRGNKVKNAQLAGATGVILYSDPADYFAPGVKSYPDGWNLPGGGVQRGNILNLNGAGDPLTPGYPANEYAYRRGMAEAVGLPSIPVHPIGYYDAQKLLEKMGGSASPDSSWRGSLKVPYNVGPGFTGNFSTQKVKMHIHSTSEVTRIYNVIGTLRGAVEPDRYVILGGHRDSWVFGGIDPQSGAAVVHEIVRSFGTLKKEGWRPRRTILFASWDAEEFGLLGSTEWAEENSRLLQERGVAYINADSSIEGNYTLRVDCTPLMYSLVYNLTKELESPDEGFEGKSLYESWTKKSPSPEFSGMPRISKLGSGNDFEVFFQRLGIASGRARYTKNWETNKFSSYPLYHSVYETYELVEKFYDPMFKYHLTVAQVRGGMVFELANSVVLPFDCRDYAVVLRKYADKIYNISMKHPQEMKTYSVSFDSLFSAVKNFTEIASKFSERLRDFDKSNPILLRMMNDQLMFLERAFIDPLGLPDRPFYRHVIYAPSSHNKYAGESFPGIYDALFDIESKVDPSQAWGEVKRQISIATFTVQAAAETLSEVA
As to the kind of experiment: MSD live-cell ELISA on CHOK1SV/cynoPSMA cells. A general note: In an ELISA, binding on a coated surface is turned into a signal by an enzyme label.

T1 sequence (Q04609 other isoform, or with tags, fused parts or gaps): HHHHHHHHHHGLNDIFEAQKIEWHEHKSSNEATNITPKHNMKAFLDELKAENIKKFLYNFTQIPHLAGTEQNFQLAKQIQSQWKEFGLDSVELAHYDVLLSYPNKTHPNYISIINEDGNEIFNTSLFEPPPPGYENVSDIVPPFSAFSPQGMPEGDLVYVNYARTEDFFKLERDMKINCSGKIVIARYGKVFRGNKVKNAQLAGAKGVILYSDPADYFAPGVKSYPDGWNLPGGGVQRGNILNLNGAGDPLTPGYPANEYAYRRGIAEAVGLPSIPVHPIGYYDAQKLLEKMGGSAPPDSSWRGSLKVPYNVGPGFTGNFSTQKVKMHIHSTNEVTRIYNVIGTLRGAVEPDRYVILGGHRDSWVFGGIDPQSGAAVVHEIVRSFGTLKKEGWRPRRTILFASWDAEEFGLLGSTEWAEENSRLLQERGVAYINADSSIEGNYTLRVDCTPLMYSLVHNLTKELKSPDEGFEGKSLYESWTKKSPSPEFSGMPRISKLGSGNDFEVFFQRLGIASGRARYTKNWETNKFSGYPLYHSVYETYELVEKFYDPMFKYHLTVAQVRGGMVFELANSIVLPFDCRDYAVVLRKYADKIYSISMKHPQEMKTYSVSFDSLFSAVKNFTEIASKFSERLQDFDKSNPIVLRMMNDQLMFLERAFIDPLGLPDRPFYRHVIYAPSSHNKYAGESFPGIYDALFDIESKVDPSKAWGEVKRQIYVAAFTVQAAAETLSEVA
T2 sequence (P07766 23-207): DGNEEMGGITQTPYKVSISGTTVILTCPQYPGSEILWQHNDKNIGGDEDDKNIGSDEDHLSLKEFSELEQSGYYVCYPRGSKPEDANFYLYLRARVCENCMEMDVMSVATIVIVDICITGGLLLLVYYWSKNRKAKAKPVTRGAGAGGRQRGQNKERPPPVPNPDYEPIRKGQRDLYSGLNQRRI

B1: PSMA01012 (Fc fusion)
VH: QVQLVQSGAEVKKPGASVKVSCKASGYTFTDYYMHWVRQAPGQGLEWMGYFNPYNDYTRYAQKFQGRVTMTRDTSISTAYMELSSLRSDDTAVYYCARSDGYYDAMDYWGQGTTVTVSS
VL: DIQMTQSPSAMSASVGDRVTITCRASKSISKYLAWFQQKPGKVPKLRIHSGSTLQSGVPSRFSGSGSGTEFTLTISSLQPEDFATYYCQQHIEYPWTFGQGTKVEIKR
notes: Monospecific bivalent scFv-Fc, scFv in VL-VH orientation; also called TSC189 (结合结构域); 亲本构建体PSMA01012
Consider B1, for which the binding result in experiment [1] is “binds”.

B2: CRIS7H16 (scFv, V domains shown)
VH: QVQLVQSGAEVKKPGASVKVSCKASGYTFTRSTMHWVRQAPGQGLEWIGYINPSSAYTNYAQKFQGRVTLTADKSTSTAYMELSSLRSEDTAVYYCASPQVHYDYNGFPYWGQGTLVTVSS
VL: DIQMTQSPSSLSASVGDRVTITCRASSSVSYMNWYQQKPGKAPKRWIYDSSKLASGVPSRFSGSGSGTDFTLTISSLQPEDFATYYCQQWSRNPPTFGQGTKVEIK
notes: also called H16 CD3结合结构域
Regarding B2, the binding result in experiment [2] was “binds”.

B3: PSMA01023 (Fc fusion)
chain: DIQMTQSPSTLSASVGDRVTITCRASKSISKYLAWYQQKPGKAPKLLIHSGSSLESGVPSRFSGSGSGTEFTLTISSLQPDDFATYYCQQHIEYPWTFGQGTKVEIKGGGGSGGGGSGGGGSGGGGSQVQLVQSGAEVKKPGASVKVSCKASGYTFTDYYMHWVRQAPGQGLEWMGYFNPYNDYTRYAQKFQGRVTMTRDTSTSTVYMELSSLRSEDTAVYYCARSDGYYDAMDYWGQGTTVTVSSSEPKSSDKTHTCPPCPAPEAAGAPSVFLFPPKPKDTLMISRTPEVTCVVVDVSHEDPEVKFNWYVDGVEVHNAKTKPREEQYNSTYRVVSVLTVLHQDWLNGKEYKCAVSNKALPAPIEKTISKAKGQPREPQVYTLPPSRDELTKNQVSLTCLVKGFYPSDIAVEWESNGQPENNYKTTPPVLDSDGSFFLYSKLTVDKSRWQQGNVFSCSVMHEALHNHYTQKSLSLSPGK
notes: Monospecific bivalent anti-PSMA scFv-Fc, scFv in VL-VH orientation
For the molecule B3, the Kd in experiment [3] amounted to 0.04 µM. The binding result with 全长食蟹猴PSMA is “binds”.
